The RNAGym collection of RNA variant scans (doi:10.7554/elife.80360)

B1: Hairpin Ribozyme (parent)
chain: GUCCUCUUUCACGUGCGCGUGAAAGAGAGAAGUGAACCAGAGAAACACACGUUGUGGUAUAUUACCUGGUA

Variants of: B1
Assay: self-cleavage, relative activity (ratio to wild type); higher = more cleavage; co-transcriptional

Variant	self-cleavage
A49G G69A	0.172
A49G G69C	0.186
A49G U52A	0.614
A49G U52C	0.502
A49G U52G	0.371
A49G U53A	0.4
A49G U55A	0.431
A49G U60A	0.475
A49G U60C	0.722
A49G U62A	0.0894
A49G U62G	0.0712
A49G U67C	0.125
A49G U67G	0.195
A49U A59G	0.091
A49U A61G	0.13
A49U A61U	0.108
A49U A64C	0.163
A49U A64G	0.145
A49U A71C	0.607
A49U C50A	0.293
A49U C50G	0.193
A49U C65A	0.188
A49U C66A	0.181
A49U C66G	0.136

Variant	self-cleavage
A49U C66U	0.102
A49U G51A	0.209
A49U G51C	0.166
A49U G54U	0.36
A49U G56A	0.136
A49U G69A	0.136
A49U U55A	1.03
A49U U60G	0.0756
A49U U62A	0.186
A49U U67G	0.109
A49U U70A	0.237
C50A A61G	0.12
C50A A71C	0.816
C50A A71U	0.227
C50A C65U	0.179
C50A C66A	0.145
C50A G51A	0.288
C50A G51C	0.36
C50A G56A	0.21
C50A G57U	0.128
C50A G69A	0.152
C50A U52A	0.293
C50A U52C	0.31
C50A U52G	0.361

Variant	self-cleavage
C50A U53G	0.395
C50A U55A	0.6
C50A U55G	0.419
C50A U58G	0.242
C50A U60G	0.248
C50A U63A	0.0698
C50A U63G	0.2
C50A U67A	0.153
C50A U70C	0.244
C50G A64U	0.19
C50G A71G	0.202
C50G A71U	0.148
C50G C65A	0.463
C50G C66G	0.0636
C50G G54C	0.634
C50G G68A	0.132
C50G G69U	0.156
C50G U52C	0.155
C50G U53A	0.251
C50G U53G	0.0749
C50G U58A	0.0745
C50G U58C	0.297
C50G U60C	0.353
C50G U67A	0.274

Variant	self-cleavage
C50G U67G	0.101
C50G U70A	0.178
C50U A59U	0.272
C50U A64G	0.216
C50U A71C	0.925
C50U A71U	0.211
C50U C65A	0.359
C50U G51C	0.256
C50U G54A	0.864
C50U G56A	0.203
C50U G57A	0.112
C50U G68C	0.246
C50U G69U	0.128
C50U U52G	0.318
C50U U53C	0.261
C50U U53G	0.242
C50U U60A	0.251
C50U U70A	0.266
G51A A61C	0.0891
G51A A64G	0.666
G51A C65U	0.151
G51A C66U	0.574
G51A G54C	0.36
G51A G56U	0.166

Variant	self-cleavage
G51A G57U	0.299
G51A U52A	1.15
G51A U53A	0.869
G51A U53G	0.765
G51A U58G	1.12
G51A U62G	0.262
G51A U70G	0.792
G51C A64C	0.156
G51C A64G	0.521
G51C C65G	0.205
G51C C66G	0.206
G51C G54A	0.136
G51C G56U	0.147
G51C G57C	0.152
G51C G69C	0.28
G51C U53C	0.828
G51C U53G	0.675
G51C U55C	0.306
G51C U55G	0.268
G51C U58A	0.653
G51C U60A	0.589
G51C U60C	1.23
G51C U62A	0.141
G51C U62G	0.184

Variant	self-cleavage
G51C U63A	0.199
G51C U63G	0.0973
G51C U70A	0.898
G51C U70C	1.01
G51U A64U	0.167
G51U A71U	0.793
G51U C65A	1.21
G51U C65U	0.284
G51U C66U	0.599
G51U G54A	0.72
G51U G54U	0.508
G51U G57C	0.137
G51U G57U	0.271
G51U U52C	1
G51U U53G	0.707
G51U U55A	0.302
G51U U55C	0.245
G51U U58A	0.439
G51U U60C	1.49
G51U U60G	0.659
G51U U62C	0.324
G51U U63A	0.215
G51U U63G	0.16
G51U U67G	0.384

Variant	self-cleavage
U52A	1.03
U52A A59U	0.243
U52A A64U	0.177
U52A A71C	1.46
U52A C65U	0.328
U52A C66G	0.149
U52A C66U	0.604
U52A G54A	0.621
U52A G56C	0.124
U52A G56U	0.196
U52A G57A	0.182
U52A G57U	0.267
U52A G68C	0.231
U52A U53A	0.817
U52A U53G	1.01
U52A U55G	0.372
U52A U60A	0.988
U52A U60C	1.42
U52A U62C	0.187
U52A U62G	0.0279
U52C	0.97
U52C A59C	0.254
U52C A59G	0.0564
U52C A61C	0.263

Variant	self-cleavage
U52C A61G	0.253
U52C A61U	0.226
U52C A64U	0.331
U52C A71C	1.51
U52C A71G	1.08
U52C C65G	0.426
U52C C66U	0.626
U52C G54A	0.568
U52C G56A	0.211
U52C G57U	0.207
U52C G68A	0.258
U52C G68C	0.219
U52C G68U	0.311
U52C G69C	0.313
U52C U53A	1.07
U52C U58A	0.67
U52C U60C	1.16
U52C U60G	0.55
U52C U62G	0.0331
U52C U67G	0.276
U52G	0.862
U52G A61C	0.147
U52G A64U	0.183
U52G C65A	0.782

Variant	self-cleavage
U52G C66G	0.215
U52G G54A	0.375
U52G G54C	0.42
U52G G54U	0.417
U52G G56A	0.19
U52G G68A	0.407
U52G G69A	0.263
U52G U53C	1
U52G U60A	0.4
U52G U60G	0.298
U52G U67A	0.212
U52G U70A	0.638
U53A	1.01
U53A A59G	0.177
U53A A59U	0.129
U53A A61U	0.248
U53A A71G	1.07
U53A C65A	0.901
U53A C65G	0.28
U53A C65U	0.241
U53A C66G	0.247
U53A G54C	0.472
U53A G54U	0.609
U53A G56U	0.105

Variant	self-cleavage
U53A G57C	0.145
U53A G68A	0.279
U53A G68C	0.249
U53A G68U	0.2
U53A G69A	0.484
U53A U55A	0.0855
U53A U58C	0.574
U53A U60C	1.31
U53A U62C	0.231
U53A U63A	0.153
U53A U63G	0.249
U53A U67A	0.109
U53A U67G	0.385
U53C	0.97
U53C A59G	0.303
U53C A61G	0.254
U53C A61U	0.377
U53C A64G	0.616
U53C A71C	1.26
U53C A71G	1.05
U53C C66G	0.328
U53C G54C	0.546
U53C G54U	0.573
U53C G56A	0.211

Variant	self-cleavage
U53C G56C	0.149
U53C G68A	0.328
U53C G68C	0.267
U53C G68U	0.361
U53C G69U	0.378
U53C U55A	0.34
U53C U55C	0.329
U53C U55G	0.306
U53C U58G	0.948
U53C U62A	0.119
U53C U63A	0.177
U53C U63C	0.0362
U53C U63G	0.144
U53C U70C	1.04
U53C U70G	0.765
U53G	0.86
U53G A64G	0.599
U53G A71G	0.73
U53G C65G	0.0347
U53G C65U	0.413
U53G C66A	0.131
U53G G68A	0.179
U53G G69A	0.363
U53G U60G	0.704

Variant	self-cleavage
U53G U62A	0.0694
U53G U63A	0.13
U53G U63C	0.241
U53G U70A	0.712
U53G U70C	0.783
G54A A71G	0.426
G54A A71U	0.309
G54A C66A	0.229
G54A C66U	0.272
G54A G56C	0.0439
G54A G57C	0.149
G54A G68A	0.206
G54A U55A	0.39
G54A U55G	0.162
G54A U60A	0.409
G54A U60C	0.912
G54A U62A	0.188
G54A U62G	0.0558
G54A U63A	0.209
G54A U67A	0.206
G54A U67C	0.12
G54A U70A	0.409
G54A U70C	0.244
G54A U70G	0.387

Variant	self-cleavage
G54C A61G	0.0386
G54C A61U	0.105
G54C A64C	0.104
G54C A71C	0.961
G54C A71U	0.243
G54C C65G	0.151
G54C C65U	0.132
G54C C66G	0.237
G54C G57A	0.0995
G54C G68C	0.221
G54C G68U	0.158
G54C G69C	0.0871
G54C U55C	0.245
G54C U58A	0.334
G54C U58C	0.478
G54C U58G	0.272
G54C U62G	0.141
G54C U63A	0.103
G54C U63C	0.099
G54C U67G	0.174
G54U A59G	0.148
G54U A61C	0.152
G54U A64U	0.114
G54U A71G	0.552

Variant	self-cleavage
G54U A71U	0.333
G54U C66G	0.181
G54U G56A	0.114
G54U G56C	0.24
G54U G57A	0.164
G54U G57C	0.177
G54U G57U	0.282
G54U G69C	0.194
G54U G69U	0.182
G54U U55A	0.354
G54U U62A	0.229
G54U U62G	0.166
G54U U67G	0.171
G54U U70C	0.569
G54U U70G	0.43
U55A A59U	0.205
U55A A61U	0.214
U55A A64U	0.302
U55A C65A	0.204
U55A C66G	0.24
U55A C66U	0.258
U55A G56A	0.168
